We go through one molecule from article PMC3153647 (The Journal of Cell Biology, 2011).

For the experiment, the target named is T1, His-tagged Stx6 (aa 1–234) (human, UniProt O43752 1-234).
T1 sequence: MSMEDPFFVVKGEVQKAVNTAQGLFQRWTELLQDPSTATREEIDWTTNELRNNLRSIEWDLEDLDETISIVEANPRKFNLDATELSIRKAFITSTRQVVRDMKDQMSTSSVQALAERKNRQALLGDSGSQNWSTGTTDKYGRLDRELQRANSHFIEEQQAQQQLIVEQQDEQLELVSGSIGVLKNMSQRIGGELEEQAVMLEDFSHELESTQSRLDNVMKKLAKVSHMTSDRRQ
The experiment in a line: pull-down.

B1: GST-Cog6 (aa 1–200), bacterial (domain or fragment)
chain: MAEGSGEVVAVSATGAANGLNNGAGGTSATTCNPLSRKLHKILETRLDNDKEMLEALKALSTFFVENSLRTRRNLRGDIERKSLAINEEFVSIFKEVKEELESISEDVQAMSNCCQDMTSRLQAAKEQTQDLIVKTTKLQSESQKLEIRAQVADAFLSKFQLTSDEMSLLRGTREGPITEDFFKALGRVKQIHNDVKVLL
Regarding B1, the binding result was “binds”.
